Measurements taken from US6943243.

Target: TraR (Agrobacterium strain A348)
Experiment: cell-based or functional assay

Substance	fold +/- (induction of GUS by C8-AHL, TraR + TraM co-transfected)	fold +/- (induction of GUS by C8-AHL, TraR + TraS co-transfected)
TraM	0.8 fold	
TraS		6.6 fold
